Assay results as given in IntAct's records for PubMed 22518841.

B1: Complement factor H-related protein 4 (Homo sapiens), Q92496-3 (parent)
chain: MLLLINVILTLWVSCANGQEVKPCDFPEIQHGGLYYKSLRRLYFPAAAGQSYSYYCDQNFVTPSGSYWDYIHCTQDGWSPTVPCLRTCSKSDIEIENGFISESSSIYILNKEIQYKCKPGYATADGNSSGSITCLQNGWSAQPICIKFCDMPVFENSRAKSNGMRFKLHDTLDYECYDGYEISYGNTTGSIVCGEDGWSHFPTCYNSSEKCGPPPPISNGDTTSFLLKVYVPQSRVEYQCQSYYELQGSNYVTCSNGEWSEPPRCIHPCIITEENMNKNNIQLKGKSDIKYYAKTGDTIEFMCKLGYNANTSVLSFQAVCREGIVEYPRCE

How the values were obtained:
co3_human C3, P01024 = variants of: B1; conditions: with co3_human C3, P01024
cfab_human CFB, P00751 = variants of: B1; conditions: with cfab_human CFB
prop_human CFP, P27918 = variants of: B1; conditions: with prop_human CFP
prop_human CFP, P27918, sequence (P27918 whole entry): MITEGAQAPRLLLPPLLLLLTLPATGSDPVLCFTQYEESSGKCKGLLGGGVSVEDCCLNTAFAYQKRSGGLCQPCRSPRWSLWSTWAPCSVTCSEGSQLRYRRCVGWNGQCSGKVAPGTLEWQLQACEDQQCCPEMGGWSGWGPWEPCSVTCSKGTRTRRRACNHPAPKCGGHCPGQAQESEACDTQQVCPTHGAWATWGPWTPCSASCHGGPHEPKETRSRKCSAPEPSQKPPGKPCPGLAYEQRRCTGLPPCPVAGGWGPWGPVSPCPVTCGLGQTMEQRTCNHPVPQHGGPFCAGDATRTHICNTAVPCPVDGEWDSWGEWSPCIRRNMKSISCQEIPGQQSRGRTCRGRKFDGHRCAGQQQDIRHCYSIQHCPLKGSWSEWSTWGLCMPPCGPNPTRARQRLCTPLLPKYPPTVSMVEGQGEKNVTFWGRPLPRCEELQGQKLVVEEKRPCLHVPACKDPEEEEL

co3_human C3, P01024, sequence (P01024 whole entry): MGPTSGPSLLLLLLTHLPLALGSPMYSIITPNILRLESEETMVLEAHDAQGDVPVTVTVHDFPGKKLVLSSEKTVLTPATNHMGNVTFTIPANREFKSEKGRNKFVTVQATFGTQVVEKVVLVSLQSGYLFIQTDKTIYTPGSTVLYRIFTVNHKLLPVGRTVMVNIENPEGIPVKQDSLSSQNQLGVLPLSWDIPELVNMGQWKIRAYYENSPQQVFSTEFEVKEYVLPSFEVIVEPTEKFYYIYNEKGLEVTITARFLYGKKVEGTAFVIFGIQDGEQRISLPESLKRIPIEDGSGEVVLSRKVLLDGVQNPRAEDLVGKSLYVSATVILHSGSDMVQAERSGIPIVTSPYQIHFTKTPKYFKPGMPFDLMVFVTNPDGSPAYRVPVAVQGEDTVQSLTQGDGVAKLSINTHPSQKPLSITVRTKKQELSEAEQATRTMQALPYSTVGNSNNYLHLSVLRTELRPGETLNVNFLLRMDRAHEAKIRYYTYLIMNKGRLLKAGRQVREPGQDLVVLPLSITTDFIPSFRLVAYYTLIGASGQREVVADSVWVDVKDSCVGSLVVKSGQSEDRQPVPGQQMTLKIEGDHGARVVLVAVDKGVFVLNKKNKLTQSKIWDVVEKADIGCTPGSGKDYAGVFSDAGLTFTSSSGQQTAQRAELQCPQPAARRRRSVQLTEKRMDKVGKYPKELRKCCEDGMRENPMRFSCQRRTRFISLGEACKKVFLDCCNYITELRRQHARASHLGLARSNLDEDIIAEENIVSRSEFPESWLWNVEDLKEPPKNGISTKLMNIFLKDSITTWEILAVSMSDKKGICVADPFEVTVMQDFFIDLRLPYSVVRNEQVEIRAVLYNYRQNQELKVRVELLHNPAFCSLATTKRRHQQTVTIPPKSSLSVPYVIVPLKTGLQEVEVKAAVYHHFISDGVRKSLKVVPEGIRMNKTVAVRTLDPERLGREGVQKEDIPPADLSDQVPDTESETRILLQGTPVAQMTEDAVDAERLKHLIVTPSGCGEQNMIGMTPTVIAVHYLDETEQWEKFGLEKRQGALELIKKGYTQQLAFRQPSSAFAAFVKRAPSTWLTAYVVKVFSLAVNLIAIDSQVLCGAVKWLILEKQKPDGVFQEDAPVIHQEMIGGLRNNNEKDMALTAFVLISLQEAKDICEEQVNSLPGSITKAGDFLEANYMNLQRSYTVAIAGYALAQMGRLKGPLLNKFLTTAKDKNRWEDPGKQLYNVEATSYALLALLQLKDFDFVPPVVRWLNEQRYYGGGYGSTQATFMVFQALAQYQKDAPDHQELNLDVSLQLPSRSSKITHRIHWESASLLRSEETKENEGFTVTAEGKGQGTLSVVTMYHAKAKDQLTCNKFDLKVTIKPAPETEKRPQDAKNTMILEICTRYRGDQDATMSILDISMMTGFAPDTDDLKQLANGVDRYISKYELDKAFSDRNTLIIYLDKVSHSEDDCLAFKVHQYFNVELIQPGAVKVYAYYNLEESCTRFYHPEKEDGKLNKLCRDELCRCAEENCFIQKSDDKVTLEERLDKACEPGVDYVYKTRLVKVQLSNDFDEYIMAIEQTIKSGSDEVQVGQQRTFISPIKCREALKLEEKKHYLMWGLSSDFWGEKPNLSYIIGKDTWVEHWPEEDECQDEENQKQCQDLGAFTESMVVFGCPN
cfab_human CFB, P00751, sequence (P00751 whole entry): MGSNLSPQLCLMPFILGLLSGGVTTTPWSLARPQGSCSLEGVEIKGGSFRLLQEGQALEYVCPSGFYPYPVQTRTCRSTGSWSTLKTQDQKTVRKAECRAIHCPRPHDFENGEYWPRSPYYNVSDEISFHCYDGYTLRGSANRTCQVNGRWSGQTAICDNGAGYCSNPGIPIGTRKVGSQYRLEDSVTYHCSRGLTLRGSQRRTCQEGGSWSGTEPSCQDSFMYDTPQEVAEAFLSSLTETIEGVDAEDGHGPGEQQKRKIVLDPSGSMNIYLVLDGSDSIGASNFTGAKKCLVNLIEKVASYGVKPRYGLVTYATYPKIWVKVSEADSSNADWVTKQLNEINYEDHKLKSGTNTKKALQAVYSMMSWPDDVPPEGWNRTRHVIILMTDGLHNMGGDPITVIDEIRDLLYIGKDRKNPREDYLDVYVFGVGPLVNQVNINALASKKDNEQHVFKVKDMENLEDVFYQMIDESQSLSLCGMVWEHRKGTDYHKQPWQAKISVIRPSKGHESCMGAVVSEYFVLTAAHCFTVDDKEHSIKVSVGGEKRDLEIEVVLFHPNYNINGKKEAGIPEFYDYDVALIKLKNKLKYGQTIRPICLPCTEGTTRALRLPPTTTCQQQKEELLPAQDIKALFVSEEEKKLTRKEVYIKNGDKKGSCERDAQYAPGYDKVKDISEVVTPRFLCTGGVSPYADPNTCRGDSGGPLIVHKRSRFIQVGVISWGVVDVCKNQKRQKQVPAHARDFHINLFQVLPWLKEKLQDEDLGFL

Variant	effect of a mutation on the interaction (co3_human C3, P01024)	effect of a mutation on the interaction (cfab_human CFB, P00751)	effect of a mutation on the interaction (prop_human CFP, P27918)
MLLLINVILTLWVSCANGQEVKPCDFPEIQHGGLYYKSLRRLYFPAAAGQSYSYYCDQNFVTPSGSYWDYIHCTQDGWSPTVPCLRTCSKSDIEIENGFISESSSIYILNKEIQYKCKPGYATADGNSSGSITCLQNGWSAQPICIKFCDMPVFENSRAKSNGMRFKLHDTLDYECYDGYEISYGNTTGSIVCGEDGWSHFPTCYNSSEKCGPPPPISNGGTTSFLLKVYVPQSRVEYQCQSYYELQGSNYVTCSNGEWSEPPRCIHPCIITEENMNKNNIQLKGKSDIKYYAKTGDTIEFMCKLGYNANTSVLSFQAVCREGIVEYPRCE [D221G]	decreasing interaction strength	decreasing interaction strength	decreasing interaction strength
MLLLINVILTLWVSCANGQEVKPCDFPEIQHGGLYYKSLRRLYFPAAAGQSYSYYCDQNFVTPSGSYWDYIHCTQDGWSPTVPCLRTCSKSDIEIENGFISESSSIYILNKEIQYKCKPGYATADGNSSGSITCLQNGWSAQPICIKFCDMPVFENSRAKSNGMRFKLHDTLDYECYDGYEISYGNTTGSIVCGEDGWSHFPTCYNSSEKCGPPPPISNGGTTSFLLKVYVPQSRVEYQCQSYYELQGSNYVTCSNGEWSEPPRCIHPCIITEENMNKNNIQLKGKSDIAYYAKTGDTIEFMCKLGYNANTSVLSFQAVCREGIVEYPRCE [D221G;K290A]	disrupting interaction strength	disrupting interaction strength	disrupting interaction strength
